From patent US20220119543A1 (INATHERYS, published 2022)

Experiments:
[1] = target: T1, Recombinant human TfR (R&D Systems, Catalog number 2474-TR) (human, UniProt P02786 89-760); assay: ELISA, recombinant human TfR coated on plate
T1 construct: Bought recombinant protein; also called Histidin-tagged human TfR; TfR-His; not shown: histidine tag
Experimental: For the determination of the specificity of the antibody an ELISA test may be applied using the following protocol. Recombinant human TfR (as obtained from R&D Systems, Catalog number 2474-TR) are directly coated on a 96 well plate overnight and washed twice before incubation with several dilutions (10) of the antibody (murine and humanized mAb) (dilution may start at the concentration of 50 μg/ml through 0,001 ug/ml) and incubate 1 hour at room temperature. After two washes a secondary antibody Goat-anti Human IgG is incubated Incubate 1 hour at room temperature in the dark, washed twice and incubated with the TMB solution for 10 minutes before reading the absorbance at 450 nm.

[2] = target: T1, Recombinant human TfR (R&D Systems, …); assay: SPR (Biacore), His-tagged human TfR captured on anti-Penta-His CM5 chip, antibody injected
Experimental: Histidin-tagged human TfR (as obtained from R&D Systems, Catalog number 2474-TR) was bound after passage on covalently immobilized Penta-His mAb CM5 sensor chip. Ten different concentrations of antibody (1 to 500 nM) were injected across the anti-His/TfR-His surface for 4 minutes and the dissociation complexes was followed for 5 minutes. Both association and dissociation profiles are analyzed with a nonlinear square algorithm implemented in the BIAevalution software using single-exponential functions of time.

T1 sequence (P02786 89-760 limits assumed): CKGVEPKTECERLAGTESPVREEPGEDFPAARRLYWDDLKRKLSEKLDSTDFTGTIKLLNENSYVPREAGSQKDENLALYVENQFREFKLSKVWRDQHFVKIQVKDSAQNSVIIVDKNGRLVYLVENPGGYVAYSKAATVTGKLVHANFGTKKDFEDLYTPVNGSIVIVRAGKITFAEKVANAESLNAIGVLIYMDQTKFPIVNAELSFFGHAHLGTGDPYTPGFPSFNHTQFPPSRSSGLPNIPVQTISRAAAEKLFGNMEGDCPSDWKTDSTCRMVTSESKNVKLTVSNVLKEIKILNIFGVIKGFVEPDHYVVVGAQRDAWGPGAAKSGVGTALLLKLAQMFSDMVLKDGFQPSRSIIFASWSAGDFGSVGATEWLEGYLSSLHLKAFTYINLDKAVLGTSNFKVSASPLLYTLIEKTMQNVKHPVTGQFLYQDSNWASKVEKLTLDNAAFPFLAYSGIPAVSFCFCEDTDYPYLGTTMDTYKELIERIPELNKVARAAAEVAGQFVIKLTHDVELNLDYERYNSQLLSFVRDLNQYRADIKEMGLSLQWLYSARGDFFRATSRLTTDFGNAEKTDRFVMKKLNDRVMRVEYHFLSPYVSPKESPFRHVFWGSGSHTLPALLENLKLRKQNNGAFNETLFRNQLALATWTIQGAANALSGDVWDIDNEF

- EC50 [1]: 0.024 µg/mL
- Kd [2]: 0.315 nM
B1: mAb1 (antibody, human IgG4 S228P, kappa, V domains shown)
VH: QVQLVQSGPELKKPGASVKVSCKASGYTFTNQGMNWVKQAPGKGLKWMGWINTYTGEPINADDFKGRFVISLDTSASTAYLQISSLKAEDTAVYFCVREGWDSMDYWGQGTSVTVSS
VL: QIVLTQSPATLSVSPGERATLSCSASSSVNYMHWFQQKPGQSPRLLIYSTSNRATGIPARFSGSGSGTSYTLTISSLEPEDFAVYYCQQRSSYPLTFGQGTKLEIKR
notes: Humanized A24, human IgG4 isotype; also called VH4/VL4 with IgG4 Fc region
